From PMC3961674, “Novel Ubiquitin-derived High Affinity Binding Proteins with Tumor Targeting Properties*” (The Journal of Biological Chemistry, 2014)

Molecular target: 77405-MSA (77405 fused to mouse serum albumin) (human | mouse, UniProt P0CG48 1-76; P0CG48 1-76, Gln-2 to Arg | Phe-4 to Trp | Lys-6 to His | Gln-62 to Asn | Lys-63 to Pro | …)
Experiment: ELISA; 67B89 target or 6789 off-target coated on Medisorp 96-well plates; variant in serial dilutions, 1 h; detection with anti-Ubi-Fab-POD; apparent KD by hyperbolic fit
Settings: both partners purified

Kd: 0.58 nM
B1: 67B89 (ED-B domain of fibronectin flanked by its N-terminal domains 6 and 7 and C-terminal domains 8 and 9) (domain or fragment)
chain: not shown
notes: fibronectin, UniProt P02751 isoform 7, residues 1080-1541 (domains 6, 7, ED-B, 8, 9); numbers count on: isoform 7; tag-free, from pET28a; gene synthesis; also called 67B89 target; ED-B target; source: E. coli HMS174 (DE3), purified (Q-Sepharose FF, ammonium sulfate precipitation, Phenyl HP, Q Sepharose HP)
